Data on seven molecules can be found in US20110243928A1 (published 2011).

For experiment [1], the target named is T1, E. coli-expressed recombinant human IL-13 (human, UniProt P35225 35-146).
T1 construct: Untagged E. coli-expressed human IL-13; also called hIL-13; human IL13 (CA)
The experiment in a line: BIAcore analysis 4, antibody captured on Protein A, IL-13 in solution. How it is done:
(§1) Completed for both human and cynomolgus IL-13 (E. coli-expressed protein). The quoted KD values are the average from 5 different IL-13 concentration curves (done in triplicate).
(§2) The kinetics analysis was performed on a Biacore 3000 machine, using an antibody capture method. Briefly, for the chimeric 6A1 and humanised antibody constructs Protein A capture was used, whilst for the parental murine 6A1 antibody, capture was by a anti-mouse Fc antibody supplied by Biacore. Briefly, the method is as follows, the capture ligand was immobilised to a CM5 Biosensor chip by primary amine coupling in accordance with Biacore standard protocols and using the reagents supplied in Biacores' primary amine coupling kit. The method involves activation CM5 sensor surface by passing a solution of 50 mM N-hydroxy-succinimide (NHS) and 200 mM N-ethyl-N′-dimethylaminopropyl […] (EDC) over the surface. Then, the capture ligand (dissolved in acetate buffer pH5 or pH4.5) was coupled to the activated sensor surface after which any still activated esters were blocked by an injection of 1M ethanolamine hydrochloride, pH8.5.
(§3) The candidate antibody was then passed over the Protein A or anti-mouse Fc antibody surface, depending on whether it was human or mouse in origin and captured. Once a stable binding signal was seen IL13 was passed over the captured antibody surface at various defined concentrations. The subsequent binding curves were analysed with Biacore analysis software BIAeval v4.1 to determine kinetics. The experiments were carried out using Biacore HBS-EP buffer.

Experiment [2] addresses T2, E. coli-expressed recombinant cynomolgus IL-13 (cynomolgus, UniProt Q5I6E4 21-132 (Macaca thibetana entry)).
T2 construct: also called cyno IL13 (CA); cIL-13
T2 chain: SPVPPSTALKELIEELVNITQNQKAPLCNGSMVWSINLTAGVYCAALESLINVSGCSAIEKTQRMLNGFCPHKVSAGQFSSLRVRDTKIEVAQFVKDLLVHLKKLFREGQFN
Described as above. The procedure:
as §1, §2, §3

Experiment [3] addresses mammalian-expressed (CHO cell) human IL-13 (human, UniProt P35225 35-146, limits assumed). The experiment in a line: cell-based or functional assay.
In experiment [4] the target is T1, E. coli-expressed recombinant human …. Nature of the experiment: cell-based or functional assay.
Experiment [5] deals with E. coli-expressed recombinant Q130 human IL-13 (human, UniProt P35225 35-146, limits assumed). The experiment in a line: cell-based or functional assay.
Experiment [6] addresses T2, E. coli-expressed recombinant …. Nature of the experiment: cell-based or functional assay.
Experiment [7] concerns the target T1, E. coli-expressed recombinant human …. Nature of the experiment: human IL-13 binding sandwich ELISA. Background: In an ELISA, binding on a coated surface is turned into a signal by an enzyme label.
Experiment [8] has the same target. Nature of the experiment: BIAcore analysis 1, antibody captured, IL-13 in solution. The procedure:
(§4) Completed for both human and cynomolgus IL-13 (E. coli-expressed protein). The quoted KD values are the average from 5 different IL-13 concentration curves (done in triplicate). Note that mass transfer issues were apparent in this analysis and that a modified experimental protocol (to correct for this issue) has been completed in analysis 4 (where no mass transfer issues were present).
as §2, §3

Experiment [9] deals with T2, E. coli-expressed recombinant …. The description is as above. The procedure: as §4, §2, §3
The target of experiment [10] is T3, 16mer biotinylated human IL-13 peptide number 24 (human, N-terminal biotin; C-terminal amide).
T3 construct: format Biotin-SGSG-PEPTIDE-amide; also called Peptide 24
T3 peptide: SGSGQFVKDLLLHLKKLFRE
The experiment in a line: BIAcore analysis 3, antibody over biotinylated peptide on SA chip. The procedure:
Completed for the 16mer biotinylated human IL-13 peptide number 24 (identified as the linear binding epitope for parental mAb 6A1, see section 6.7). Note that the absolute KD values obtained for binding to peptide ligands are often quite different to those seen for binding to whole protein targets.
The kinetics analysis was performed on a Biacore 3000 machine using direct binding of antibody to immobilised IL-13 peptide. Briefly, IL-13 biotinylated peptide was captured using a Biacore SA (strepavidin) Biosensor chip. The antibodies were then passed over the sensor surface at various concentrations. The subsequent binding curves were analysed with Biacore analysis software BIAeval 4.1 to determine kinetics. The experiment was carried out using Biacore HBS-EP buffer

For experiment [11], the target named is T4, E. coli-expressed recombinant det-1 tagged human IL-13 (human, UniProt P35225 35-146).
T4 construct: also called Det-1 tagged human IL-13 (made in-house); not shown: det-1 tag
The experiment in a line: competition ELISA: inhibition of det-1 tagged human IL-13 binding to human IL-13Rα2-Fc.

For experiment [12], the target named is E. coli-expressed recombinant human GM-CSF (human, UniProt P04141 18-144). The experiment in a line: binding ELISA.
Experiment [13] concerns the target T5, E. coli-expressed recombinant human IL-4 (human, UniProt P05112 25-153).
T5 sequence (looked up): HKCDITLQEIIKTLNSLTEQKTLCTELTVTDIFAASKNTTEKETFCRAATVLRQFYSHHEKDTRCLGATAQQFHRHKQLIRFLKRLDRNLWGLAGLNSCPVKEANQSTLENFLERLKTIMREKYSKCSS
Nature of the experiment: binding ELISA.

For experiment [14], the target named is T4, E. coli-expressed recombinant det-1 …. The experiment in a line: competition ELISA: inhibition of det-1 tagged human IL-13 binding to human IL-13Rα1-Fc.
Experiment [15] concerns the target T6, native (PBMC derived) human IL-13 (human, UniProt P35225 35-146, limits assumed).
T6 construct: IL-13 in supernatant of stimulated human CD4+ Th2 cells; also called native human IL-13; Native IL-13
The experiment in a line: ELISA on Th2 cell supernatant read against a standard curve.

Experiment [16] concerns the target T2, E. coli-expressed recombinant …. Nature of the experiment: cynomolgus IL-13 binding sandwich ELISA.
The target in experiment [17] is T1, E. coli-expressed recombinant human …. Nature of the experiment: human IL-13 binding ELISA, CHO supernatant.
The target is the same in experiment [18]. Nature of the experiment: sandwich ELISA.

Broadly, the Kd is the concentration at which binding is half-saturated. As usually defined, the koff is the first-order rate constant of dissociation. In general, kon refers to the second-order rate constant of association. For orientation: EC50 means the midpoint of the concentration-response curve. In general, IC50 refers to the midpoint of a concentration-inhibition curve.

T1 sequence (P35225 other isoform, or with tags, fused parts or gaps): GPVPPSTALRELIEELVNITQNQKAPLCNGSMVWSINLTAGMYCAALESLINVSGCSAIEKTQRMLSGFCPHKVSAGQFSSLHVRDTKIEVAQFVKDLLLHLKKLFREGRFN
T4 sequence (P35225 other isoform, or with tags, fused parts or gaps): as above
E. coli-expressed recombinant human GM-CSF, sequence (P04141 18-144 limits assumed): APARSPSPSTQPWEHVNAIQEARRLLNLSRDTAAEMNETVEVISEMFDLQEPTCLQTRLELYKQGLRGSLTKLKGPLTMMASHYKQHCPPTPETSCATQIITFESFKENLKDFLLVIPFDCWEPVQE
E. coli-expressed recombinant Q130 human IL-13, sequence (P35225 35-146 limits assumed): as the sequence (P35225 other isoform, or with tags, fused parts or gaps) above, with R110Q counted along it
mammalian-expressed (CHO cell) human IL-13, sequence (P35225 other isoform, or with tags, fused parts or gaps limits assumed): as the sequence (P35225 other isoform, or with tags, fused parts or gaps) above
T6 sequence (P35225 other isoform, or with tags, fused parts or gaps limits assumed): as the sequence (P35225 other isoform, or with tags, fused parts or gaps) above

B1: L2+A1 (antibody, human IgG1, kappa, V domains shown)
VH: QVQLVQSGAEVKKPGSSVKVSCKASGFYIKDTYMHWVRQAPGQGLEWMGTIDPANGNTKYVPKFQGRVTITADESTSTAYMELSSLRSEDTAVYYCARSIYDDYHYDDYYAMDYWGQGTLVTVSS
VL: DIVMTQSPLSLPVTPGEPASISCRSSQNIVHINGNTYLEWYLQKPGQSPRLLIYKISDRFSGVPDRFSGSGSGTDFTLKISRVEADDVGVYYCFQGSHVPWTFGQGTKLEIKR
notes: Humanised 6A1, VH construct A1 and VL construct L2; also called A1L2
For the molecule B1, the Kd in experiment [1] was determined as 0.153 nM; in [2], 0.055 nM; in experiment [8], 0.31 nM; in experiment [9], 0.097 nM; in [10], 9.35 nM. Besides, the koff in experiment [1] was 0.000139 s⁻¹; in [2], 4.25e-05 s⁻¹; in experiment [8], 0.000156 s⁻¹; in experiment [9], 5.58e-05 s⁻¹; in [10] it was 0.00167 s⁻¹. The kon was 907000 M⁻¹ s⁻¹ in [1]; 772000 M⁻¹ s⁻¹ in experiment [2]; 507000 M⁻¹ s⁻¹ in [8]; 577000 M⁻¹ s⁻¹ in experiment [9]; 179000 M⁻¹ s⁻¹ in [10]. Also, the “Mean ND50 for 2 assays” value turned out to be 1.2 µg/mL in experiment [3], 0.608 µg/mL in [4], 0.705 µg/mL in [5] and 0.12 µg/mL in experiment [6]. In addition, the EC50 in experiment [7] is 0.024 µg/mL; in experiment [16], 0.028 µg/mL. For the same molecule, the IC50 in experiment [11] was determined as 0.117 µg/mL; in experiment [14], 0.056 µg/mL. The binding result in experiment [12] and in experiment [13] was “no binding (tested: 30 µg/ml)” throughout. For the same molecule, in experiment [15], the “Native IL-13 (ng/ml) detected in Th2 supernatant” value was 22.7 ng/mL.

B2: A2L1 (antibody, human IgG1, kappa, V domains shown)
VH: QVQLVQSGAEVKKPGSSVKVSCKASGFYIKDTYMHWVIQAPGQGLEWMGTIDPANGNTKYVPKFQGRVTITADESTSTAYMELSSLRSEDTAVYYCARSIYDDYHYDDYYAMDYWGQGTLVTVSS
VL: DIVMTQSPLSLPVTPGEPASISCRSSQNIVHINGNTYLEWYLQKPGQSPRLLIYKISDRFSGVPDRFSGSGSGTDFTLKISRVEADDVGIYYCFQGSHVPWTFGQGTKLEIKR
notes: Humanised 6A1 combination, tested as CHO cell supernatant
B2: the binding result in experiment [17] is listed as “binds”.

B3: A4L2 (antibody, human IgG1, kappa, V domains shown)
VH: QVQLVQSGAEVKKPGSSVRVSCKASGFYIKDTYMHWVIQAPGQGLEWMGTIDPANGNTKYVPKFQGRVTITADTSTSTAYMRLSSLRSEDTAVYYCARSIYDDYHYDDYYAMDYWGQGTLVTVSS
VL: DIVMTQSPLSLPVTPGEPASISCRSSQNIVHINGNTYLEWYLQKPGQSPRLLIYKISDRFSGVPDRFSGSGSGTDFTLKISRVEADDVGVYYCFQGSHVPWTFGQGTKLEIKR
notes: as for B2
On to B3, for which, in experiment [18], the binding result is given as “binds”.

B4: A3L2 (antibody, human IgG1, kappa, V domains shown)
VH: QVQLVQSGAEVKKPGSSVKVSCKASGFYIKDTYMHWVIQAPGQGLEWMGTIDPANGNTKYVPKFQGRVTITADTSTSTAYMELSSLRSEDTAVYYCARSIYDDYHYDDYYAMDYWGQGTLVTVSS
VL: DIVMTQSPLSLPVTPGEPASISCRSSQNIVHINGNTYLEWYLQKPGQSPRLLIYKISDRFSGVPDRFSGSGSGTDFTLKISRVEADDVGVYYCFQGSHVPWTFGQGTKLEIKR
notes: as for B2
As to B4, the binding result in experiment [17] is “binds”.

B5: A4L1 (antibody, human IgG1, kappa, V domains shown)
VH: QVQLVQSGAEVKKPGSSVRVSCKASGFYIKDTYMHWVIQAPGQGLEWMGTIDPANGNTKYVPKFQGRVTITADTSTSTAYMRLSSLRSEDTAVYYCARSIYDDYHYDDYYAMDYWGQGTLVTVSS
VL: DIVMTQSPLSLPVTPGEPASISCRSSQNIVHINGNTYLEWYLQKPGQSPRLLIYKISDRFSGVPDRFSGSGSGTDFTLKISRVEADDVGIYYCFQGSHVPWTFGQGTKLEIKR
notes: as for B2
For B5, the binding result in experiment [18] is reported as “binds”.

B6: A2L2 (antibody, human IgG1, kappa, V domains shown)
VH: QVQLVQSGAEVKKPGSSVKVSCKASGFYIKDTYMHWVIQAPGQGLEWMGTIDPANGNTKYVPKFQGRVTITADESTSTAYMELSSLRSEDTAVYYCARSIYDDYHYDDYYAMDYWGQGTLVTVSS
VL: DIVMTQSPLSLPVTPGEPASISCRSSQNIVHINGNTYLEWYLQKPGQSPRLLIYKISDRFSGVPDRFSGSGSGTDFTLKISRVEADDVGVYYCFQGSHVPWTFGQGTKLEIKR
notes: as for B2
In the case of B6, the binding result in experiment [17] is on record as “binds”.

B7: A3L1 (antibody, human IgG1, kappa, V domains shown)
VH: QVQLVQSGAEVKKPGSSVKVSCKASGFYIKDTYMHWVIQAPGQGLEWMGTIDPANGNTKYVPKFQGRVTITADTSTSTAYMELSSLRSEDTAVYYCARSIYDDYHYDDYYAMDYWGQGTLVTVSS
VL: DIVMTQSPLSLPVTPGEPASISCRSSQNIVHINGNTYLEWYLQKPGQSPRLLIYKISDRFSGVPDRFSGSGSGTDFTLKISRVEADDVGIYYCFQGSHVPWTFGQGTKLEIKR
notes: as for B2
In the case of B7, in experiment [17], the binding result was “binds”.
